From US20090163698A1 (published 2009) come the findings set out here.

This experiment concerns the target murine αVβ3/5 integrin (murine, UniProt P43406 31-1044). As to the kind of experiment: cell-based or functional assay.

Sequence of murine αVβ3/5 integrin (P43406 31-1044): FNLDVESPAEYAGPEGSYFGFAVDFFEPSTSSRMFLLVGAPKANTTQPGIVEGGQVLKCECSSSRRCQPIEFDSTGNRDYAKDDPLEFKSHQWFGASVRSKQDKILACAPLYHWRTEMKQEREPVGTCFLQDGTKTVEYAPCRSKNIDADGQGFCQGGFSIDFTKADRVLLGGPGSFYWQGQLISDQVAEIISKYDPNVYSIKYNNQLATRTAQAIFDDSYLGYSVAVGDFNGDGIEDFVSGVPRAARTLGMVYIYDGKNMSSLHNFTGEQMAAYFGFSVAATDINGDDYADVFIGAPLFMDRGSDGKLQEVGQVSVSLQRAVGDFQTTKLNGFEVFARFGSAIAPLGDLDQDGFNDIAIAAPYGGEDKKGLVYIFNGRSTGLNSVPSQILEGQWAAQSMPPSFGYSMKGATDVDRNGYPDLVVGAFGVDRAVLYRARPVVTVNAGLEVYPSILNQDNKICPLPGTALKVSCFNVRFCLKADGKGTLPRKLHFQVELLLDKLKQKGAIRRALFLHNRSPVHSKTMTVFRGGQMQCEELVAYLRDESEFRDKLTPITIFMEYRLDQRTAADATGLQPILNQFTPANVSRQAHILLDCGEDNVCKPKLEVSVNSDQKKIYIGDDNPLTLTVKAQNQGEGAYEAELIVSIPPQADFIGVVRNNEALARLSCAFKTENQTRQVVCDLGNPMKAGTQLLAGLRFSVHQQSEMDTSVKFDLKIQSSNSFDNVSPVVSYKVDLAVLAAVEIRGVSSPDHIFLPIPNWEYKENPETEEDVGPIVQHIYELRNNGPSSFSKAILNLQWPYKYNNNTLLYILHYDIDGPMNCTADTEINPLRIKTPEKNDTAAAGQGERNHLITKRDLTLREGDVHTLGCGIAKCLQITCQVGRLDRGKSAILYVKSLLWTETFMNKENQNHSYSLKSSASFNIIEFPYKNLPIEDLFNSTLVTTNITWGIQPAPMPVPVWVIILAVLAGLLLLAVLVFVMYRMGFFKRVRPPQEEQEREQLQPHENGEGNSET

B1: CNTO 95 Fab′ (anti-alpha-V Fab′ made by pepsin cleavage of the parent antibody, reduction and reoxidation), conjugated to MalPEG-DSPE on the surface of … (Fab, V domains shown)
VH: QVQLVESGGGVVQPGRSRRLSCAASGFTFSRYTMHWVRQAPGKGLEWVAVISFDGSNKYYVDSVKGRFTISRDNSENTLYLQVNILRAEDTAVYYCAREARGSYAFDIWGQGTMVTVSS
VL: EIVLTQSPATLSLSPGERATLSCRASQSVSSYLAWYQQKPGQAPRLLIYDASNRATGIPARFSGSGSGTDFTLTISSLEPEDFAVYYCQQRSNWPPFTFGPGTKVDIKR
modifications: free sulfhydryl near the C-terminus conjugated to maleimide-PEG-DSPE inserted in the liposome
As for B1, the “Increase (ratio of IC50 of liposome-entrapped doxorubicin to IC50 of 90:1 targeted liposomes), B16-F10 cells” value stood at 1 fold.
